Response (spectral counts) and screen value data for 14 variants are collected here from PMC11369598.

First the molecules themselves.
B1: KLHL6 wild type, C-terminal Strep-HA tag (KLHL6-strHA) [human] / endogenous KLHL6 [human (endogenous in SuDHL5 and SuDHL4)] (parent)
chain 1: MLMAGQRGAWTMGDVVEKSLEGPLAPSTDEPSQKTGDLVEILNGEKVKFDDAGLSLILQNGLETLRMENALTDVILCVDIQEFSCHRVVLAAASNYFRAMFCNDLKEKYEKRIIIKGVDAETMHTLLDYTYTSKALITKQNVQRVLEAANLFQFLRMVDACASFLTEALNPENCVGILRLADTHSLDSLKKQVQSYIIQNFVQILNSEEFLDLPVDTLHHILKSDDLYVTEEAQVFETVMSWVRHKPSERLCLLPYVLENVRLPLLDPWYFVETVEADPLIRQCPEVFPLLQEARMYHLSGNEIISERTKPRMHEFQSEVFMIIGGCTKDERFVAEVTCLDPLRRSRLEVAKLPLTEHELESENKKWVEFACVTLKNEVYISGGKETQHDVWKYNSSINKWIQIEYLNIGRWRHKMVVLGGKVYVIGGFDGLQRINNVETYDPFHNCWSEAAPLLVHVSSFAATSHKKKLYVIGGGPNGKLATDKTQCYDPSTNKWSLKAAMPVEAKCINAVSFRDRIYVVGGAMRALYAYSPLEDSWCLVTQLSHERASCGIAPCNNRLYITGGRDEKNEVIATVLCWDPEAQKLTEECVLPRGVSHHGSVTIRKSYTHIRRIVPGAVSV
chain 2: B1 chain 1
B2: KLHL6 wild type fused to C-terminal BioID2 [human] / LuZP1 [human (endogenous in SuDHL5 and U2932)] (parent)
chain 1: B1 chain 1
chain 2: MAEFTSYKETASSRHLRFKLQSLSRRLDELEEATKNLQKAEDELLDLQDKVIQAEGSNSSMLAEIEVLRQRVLRIEGKDEEIKRAEDLCRLMKEKLEEEENLTRELKSEIERLQKRMAELEKLEEAFSRSKNDCTQLCLSLNEERNLTKKISSELEMLRVKVKELESSEDRLDKTEQSLASELEKLKSLTLSFVSERKYLNEKEKENEKLIKELTQKLEQNKKMNRDYTRNASNLERNDLRIEDGISSTLPSKESRRKGGLDYLKQVENETRNKSENEKNRNQEDNKVKDLNQEIEKLKTQIKHFESLEEELKKMKSKNNDLQDNYLSEQNKNKLLASQLEEIKLQIKKQKELENGEVEGEDAFLSSKGRHERTKFRGHGSEASVSKHTARELSPQHKRERLRNREFALNNENYSLSNRQVSSPSFTNRRAAKASHMGVSTDSGTQETKKTEDRFVPGSSQSEGKKSREQPSVLSRYPPAAQEHSKAWKGTSKPGTESGLKGKVEKTTRTFSDTTHGSVPSDPLGRADKASDTSSETVFGKRGHVLGNGSQVTQAANSGCSKAIGALASSRRSSSEGLSKGKKAANGLEADNSCPNSKAPVLSKYPYSCRSQENILQGFSTSHKEGVNQPAAVVMEDSSPHEALRCRVIKSSGREKPDSDDDLDIASLVTAKLVNTTITPEPEPKPQPNSREKAKTRGAPRTSLFENDKDAGMENESVKSVRASTNTMELPDTNGAGVKSQRPFSPREALRSRAIIKPVIVDKDVKKIMGGSGTETTLEKQKPVSKPGPNKVTSSITIYPSDSSSPRAAPGEALRERHTSTSNIQVGLAELTSVSNHVSSPFELSIHKHDITLQLAEAERMADGPLKDRPETVVSRSSIIIKPSDPVERNSHAPPAETIRWKSHSAPSEVGFSDARHVTVRNAWKSRRDLKSLEDPPTRIGKNVESTNSNAYTQRSSTDFSELEQPRSCLFEQGTRRVGPSSGDAPEPSSRRTQSSLTVSEVLTRRNRVGDTITVAAWNHSASMEEEGEDCTLSVYRQLHNSLDPSELPGKQGLPESGRVRAEERLRPTRPCAEEN
B3: KLHL6 wild type, C-terminal Strep-HA tag (KLHL6-strHA) [human] / KLHL26 [human (endogenous in SuDHL5)] (parent)
chain 1: B1 chain 1
chain 2: MAESGGSSGGAGGGGAFGAGPGPERPNSTADKNGALKCTFSAPSHSTSLLQGLATLRAQGQLLDVVLTINREAFPAHKVVLAACSDYFRAMFTGGMREASQDVIELKGVSARGLRHIIDFAYSAEVTLDLDCVQDVLGAAVFLQMLPVVELCEEFLKAAMSVETCLNIGQMATTFSLASLRESVDAFTFRHFLQIAEEEDFLRLPLERLVFFLQSNRLQSCAEIDLFRAAVRWLQHDPARRPRASHVLCHIRFPLMQSSELVDSVQTLDIMVEDVLCRQYLLEAFNYQVLPFRQHEMQSPRTAVRSDVPSLVTFGGTPYTDSDRSVSSKVYQLPEPGARHFRELTEMEVGCSHTCVAVLDNFVYVAGGQHLQYRSGEGAVDACYRYDPHLNRWLRLQAMQESRIQFQLNVLCGMVYATGGRNRAGSLASVERYCPRRNEWGYACSLKRRTWGHAGAASGGRLYISGGYGISVEDKKALHCYDPVADQWEFKAPMSEPRVLHAMVGAGGRIYALGGRMDHVDRCFDVLAVEYYVPETDQWTSVSPMRAGQSEAGCCLLERKIYIVGGYNWRLNNVTGIVQVYNTDTDEWERDLHFPESFAGIACAPVLLPRAGTRR
B4: KLHL6 wild type, C-terminal Strep-HA tag (KLHL6-strHA) [human] / adapter protein BANK1 [human (endogenous in SuDHL5 and U2932)] (parent)
chain 1: B1 chain 1
chain 2: MLPAAPGKGLGSPDPAPCGPAPPGNTKDIIMIYEEDAEEWALYLTEVFLHVVKREAILLYRLENFSFRHLELLNLTSYKCKLLILSNSLLRDLTPKKCQFLEKILHSPKSVVTLLCGVKSSDQLYELLNISQSRWEISTEQEPEDYISVIQSIIFKDSEDYFEVNIPTDLRAKHSGEISERKEIEELSEASRNTIPLAVVLPTEIPCENPGEIFIILRDEVIGDTVEVEFTSSNKRIRTRPALWNKKVWCMKALEFPAGSVHVNVYCDGIVKATTKIKYYPTAKAKECLFRMADSGESLCQNSIEELDGVLTSIFKHEIPYYEFQSLQTEICSQNKYTHFKELPTLLHCAAKFGLKNLAIHLLQCSGATWASKMKNMEGSDPAHIAERHGHKELKKIFEDFSIQEIDINNEQENDYEEDIASFSTYIPSTQNPAFHHESRKTYGQSADGAEANEMEGEGKQNGSGMETKHSPLEVGSESSEDQYDDLYVFIPGADPENNSQEPLMSSRPPLPPPRPVANAFQLERPHFTLPGTMVEGQMERSQNWGHPGVRQETGDEPKGEKEKKEEEKEQEEEEDPYTFAEIDDSEYDMILANLSIKKKTGSRSFIINRPPAPTPRPTSIPPKEETTPYIAQVFQQKTARRQSDDDKFCGLPKKQDRARIESPAFSTLRGCLTDGQEELILLQEKVKNGKMSMDEALEKFKHWQMGKSGLEMIQQEKLRQLRDCIIGKRPEEENVYNKLTIVHHPGGKETAHNENKFYNVHFSNKLPARPQVEKEFGFCCKKDH
B5: KLHL6 wild type, C-terminal Strep-HA tag (KLHL6-strHA) [human] / KLHL7 [human (endogenous in SuDHL5)] (parent)
chain 1: B1 chain 1
chain 2: MAASGVEKSSKKKTEKKLAAREEAKLLAGFMGVMNNMRKQKTLCDVILMVQERKIPAHRVVLAAASHFFNLMFTTNMLESKSFEVELKDAEPDIIEQLVEFAYTARISVNSNNVQSLLDAANQYQIEPVKKMCVDFLKEQVDASNCLGISVLAECLDCPELKATADDFIHQHFTEVYKTDEFLQLDVKRVTHLLNQDTLTVRAEDQVYDAAVRWLKYDEPNRQPFMVDILAKVRFPLISKNFLSKTVQAEPLIQDNPECLKMVISGMRYHLLSPEDREELVDGTRPRRKKHDYRIALFGGSQPQSCRYFNPKDYSWTDIRCPFEKRRDAACVFWDNVVYILGGSQLFPIKRMDCYNVVKDSWYSKLGPPTPRDSLAACAAEGKIYTSGGSEVGNSALYLFECYDTRTESWHTKPSMLTQRCSHGMVEANGLIYVCGGSLGNNVSGRVLNSCEVYDPATETWTELCPMIEARKNHGLVFVKDKIFAVGGQNGLGGLDNVEYYDIKLNEWKMVSPMPWKGVTVKCAAVGSIVYVLAGFQGVGRLGHILEYNTETDKWVANSKVRAFPVTSCLICVVDTCGANEETLET

Variants of B1 are the subject of the first experiment. Nature of the experiment: AP-MS (spectral counts of the WT, leucine-65 peptide in the L65P bait pull-down). The settings on record: with endogenous KLHL6 [human (endogenous in SuDHL5 and SuDHL4)]; SuDHL5 cells; read off a plot.
On to chain 1 L65P, for which the response (spectral counts) came to 5.

The variants in another experiment derive from B1. Nature of the experiment: AP-MS (spectral counts of the WT, leucine-90 peptide in the L90F bait pull-down). The following applies: with endogenous KLHL6 [human (endogenous in SuDHL5 and SuDHL4)]; SuDHL5 cells; read off a plot.
On to chain 1 L90F, for which the response (spectral counts) turned out to be 1.

In another experiment the parent is B2. Briefly: BioID2 proximity labelling, mass spectrometry (spectral counts). The following applies: with LuZP1 [human (endogenous in SuDHL5 and U2932)]; SuDHL5 cells; read off a plot.
On to chain 1 L65P, for which the response (spectral counts) is 13.
As for chain 1 E568K, the response (spectral counts) is 1.5.
The same measure, in the same setting: with chain 1 E547K the figure was 1.5.

Variants of B2 are the subject of another experiment. Briefly: BioID2 proximity labelling, mass spectrometry. The settings on record: with LuZP1 [human (endogenous in SuDHL5 and U2932)]; SuDHL5 cells; read off a plot.
For chain 1 E568K, the screen value amounted to 2.4 log2.

In the next experiment the parent is B3. Briefly: AP-MS (Strep affinity purification, spectral counts). The following applies: with KLHL26 [human (endogenous in SuDHL5)]; SuDHL5 cells; read off a plot.
For the variant chain 1 L90F, the response (spectral counts) came out at 0.5.
The same measure, in the same setting: with chain 1 E568K the figure was 15; with chain 1 L65P, 0.

The variants in a further experiment derive from B3. Nature of the experiment: AP-MS (Strep affinity purification, mass spectrometry; DESeq2 model). The settings on record: with KLHL26 [human (endogenous in SuDHL5)]; SuDHL5 cells; WT eight replicates, L90F eight replicates; read off a plot.
Regarding chain 1 L90F, the screen value stood at 2.7 log2.

The same experiment, now with this note: with KLHL26 [human (endogenous in SuDHL5)]; SuDHL5 cells; WT eight replicates, L65P four replicates; read off a plot.
With chain 1 L65P, the screen value worked out at 4.4 log2.

In the next experiment the parent is B4. Briefly: AP-MS (Strep affinity purification, spectral counts). The settings on record: with adapter protein BANK1 [human (endogenous in SuDHL5 and U2932)]; SuDHL5 cells; read off a plot.
As to chain 1 E568K, the response (spectral counts) was found to be 2.
chain 1 L65P: the response (spectral counts) is 0.5.
In the case of chain 1 L90F, the response (spectral counts) came out at 7.5.

In the next experiment the parent is B5. The description is as above. The following applies: with KLHL7 [human (endogenous in SuDHL5)]; SuDHL5 cells; read off a plot.
Consider chain 1 E568K, for which the response (spectral counts) is 20.
On to chain 1 L65P, for which the response (spectral counts) is 0.
For the variant chain 1 L90F, the response (spectral counts) was 0.

Variants of B5 are the subject of the next experiment. Briefly: AP-MS (Strep affinity purification, mass spectrometry; DESeq2 model). The settings on record: with KLHL7 [human (endogenous in SuDHL5)]; SuDHL5 cells; WT eight replicates, L65P four replicates; read off a plot.
Turning to chain 1 L65P, the screen value is 4.9 log2.

The same experiment, now with this note: with KLHL7 [human (endogenous in SuDHL5)]; SuDHL5 cells; WT eight replicates, L90F eight replicates; read off a plot.
In the case of chain 1 L90F, the screen value came to 4.9 log2.
